Test results as given in the RNAGym collection of RNA variant scans (doi:10.1073/pnas.2313332121).
This sample holds only a part of the variants without activity.

B1: TPR 5TU (parent)
chain: GGAUCUUCUCGAUCUAACAAAAAAGACAAAUCUGCCACAAAGCUUGAGAGCAUCUUCGGAUGCAGAGGCGGCAGCCUUCGGUGGCGCGAUAGCGCCAACGUUCUCAACUAUGACACGCAAAACGCGUGCUCCGUUGAAUGGAGUUUAUCAUG

Variants of: B1
Experiment: polymerase ribozyme fitness, log enrichment relative to wild type (log ratio); higher = more active; in vitro selection for triplet polymerase activity
How it was run: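 Mutant libraries for each subunit of a heterodimeric triplet polymerase ribozyme were made by PCR and then transcribed. Each library underwent one round of in vitro selection in triplicate: annealing with a biotinylated primer, the partner subunit and triplets, frozen incubation at −7 °C, gel excision of extended constructs, streptavidin-bead capture and RT-PCR. Input and output libraries were Illumina-sequenced, and only genotypes with ≥10 input reads and ≥1 read per output were kept. Fitness is the logarithm, base 2, of genotype enrichment over wild-type enrichment, computed from inverse-variance-weighted replicate averages.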
In the case of U6A A20U C27U G46A C87A, the “polymerase ribozyme fitness (log ratio)” value is reported as at most -4.2.
For C5G C14G A49G, the “polymerase ribozyme fitness (log ratio)” value was -3.17.
With U6A C18U A20C A22C U44C U55A C87A the “polymerase ribozyme fitness (log ratio)” value was at most -4.2.
In the case of C5U C93U, the “polymerase ribozyme fitness (log ratio)” value is reported as 0.375.
For C5U C93G, the “polymerase ribozyme fitness (log ratio)” value was -3.16.
For U4C C5U A23C A47C C79A C85G U90C G117U G152U, the “polymerase ribozyme fitness (log ratio)” value was at most -4.2.
For C5G A39G C51U A106G, the “polymerase ribozyme fitness (log ratio)” value was at most -4.2.
With C5A G58A G86U the “polymerase ribozyme fitness (log ratio)” value was -1.52.
In the case of U6A A41C G50C G84A A119G, the “polymerase ribozyme fitness (log ratio)” value is reported as -3.27.
In the case of C5U C38U C85G U101C, the “polymerase ribozyme fitness (log ratio)” value is reported as -1.38.
For U4C A19U G50C C76U U144G, the “polymerase ribozyme fitness (log ratio)” value was at most -4.2.
In the case of C5U A91U, the “polymerase ribozyme fitness (log ratio)” value is reported as -3.99.
For C5G C10G G92A C123U A138C G143A, the “polymerase ribozyme fitness (log ratio)” value was at most -4.2.
For C5U A121G, the “polymerase ribozyme fitness (log ratio)” value was 0.614.
For U4A A147C, the “polymerase ribozyme fitness (log ratio)” value was -0.789.
For U6A C18A A21U U56G G68A A91U G128C U139A G143A, the “polymerase ribozyme fitness (log ratio)” value was at most -4.2.
With U4G U6G A22C A73G G83C the “polymerase ribozyme fitness (log ratio)” value was at most -4.2.
In the case of U4G A41C A137C, the “polymerase ribozyme fitness (log ratio)” value is reported as at most -4.2.
With C5U A22U C85A U135A the “polymerase ribozyme fitness (log ratio)” value was -0.0168.
In the case of U4A C8G U13G A24C C96U, the “polymerase ribozyme fitness (log ratio)” value is reported as at most -4.2.
With C5A C93U C105U C149G the “polymerase ribozyme fitness (log ratio)” value was -3.96.
For C5A U6G U82C C95G, the “polymerase ribozyme fitness (log ratio)” value was -2.28.
In the case of U6A A16C C27U U31G A52C C54G C118U, the “polymerase ribozyme fitness (log ratio)” value is reported as at most -4.2.
With C5A A12C A19U U102G C116A A119G U135A G136C the “polymerase ribozyme fitness (log ratio)” value was at most -4.2.
With U6C C38U C75G U82A A107G A120G G133A U134A the “polymerase ribozyme fitness (log ratio)” value was at most -4.2.
In the case of U4G C38U C93G, the “polymerase ribozyme fitness (log ratio)” value is reported as -2.52.
In the case of U6C A29U A41C G42U G59C C85U G100U A107G G124A, the “polymerase ribozyme fitness (log ratio)” value is reported as at most -4.2.
For C5G A52G G80A, the “polymerase ribozyme fitness (log ratio)” value was -1.81.
In the case of U4C U56G C63U C93G, the “polymerase ribozyme fitness (log ratio)” value is reported as -3.11.
For U4C G11U U53C, the “polymerase ribozyme fitness (log ratio)” value was -2.27.
With C5A G59A C76U U77A G84A C118G C132G the “polymerase ribozyme fitness (log ratio)” value was at most -4.2.
For U4G U31A C54U G86C G92U U148G, the “polymerase ribozyme fitness (log ratio)” value was at most -4.2.
For C5U U7G A29C A49G G50C C76A C87U C131A G133A U145G, the “polymerase ribozyme fitness (log ratio)” value was at most -4.2.
In the case of C5U A16U C87A A106C, the “polymerase ribozyme fitness (log ratio)” value is reported as at most -4.2.
With U4A A60C G71U G92C C108G G117A G124U A137C the “polymerase ribozyme fitness (log ratio)” value was at most -4.2.
With U4G U13G C93U A120G G143A U148C the “polymerase ribozyme fitness (log ratio)” value was at most -4.2.
For U6A C54A C93G, the “polymerase ribozyme fitness (log ratio)” value was at most -4.2.
For C5U U55G C79G C87A A97U A106C, the “polymerase ribozyme fitness (log ratio)” value was at most -4.2.
With C5A A16U G59U the “polymerase ribozyme fitness (log ratio)” value was -1.5.
With U6A A17U G65A G83A G84U C87A G100A G141A the “polymerase ribozyme fitness (log ratio)” value was at most -4.2.
For C5G A49G U61A C85G, the “polymerase ribozyme fitness (log ratio)” value was at most -4.2.
In the case of U4G A26U G50U C87A G141A A150U, the “polymerase ribozyme fitness (log ratio)” value is reported as at most -4.2.
In the case of C5U A12C A40C U61A C95U, the “polymerase ribozyme fitness (log ratio)” value is reported as -2.18.
For U4G U56G U144A, the “polymerase ribozyme fitness (log ratio)” value was -1.19.
In the case of U4G C75G A91U G92A U101G C125U, the “polymerase ribozyme fitness (log ratio)” value is reported as at most -4.2.
With U4A C93A the “polymerase ribozyme fitness (log ratio)” value was -1.38.
With U6A C14U G65U A91G U148A the “polymerase ribozyme fitness (log ratio)” value was at most -4.2.
For U4G C27G A40U C116G A137C, the “polymerase ribozyme fitness (log ratio)” value was at most -4.2.
For C5A C54A C57A G58A G68A A89U C95G, the “polymerase ribozyme fitness (log ratio)” value was at most -4.2.
With C5U A30G A52U C76G G94A C118U U148A the “polymerase ribozyme fitness (log ratio)” value was at most -4.2.
For C5G U13A, the “polymerase ribozyme fitness (log ratio)” value was -1.14.
For U6A A19G C38G U61A G94C C103G, the “polymerase ribozyme fitness (log ratio)” value was at most -4.2.
In the case of U4A G48U C57G C93U G136A U146G, the “polymerase ribozyme fitness (log ratio)” value is reported as -2.55.
For C5A U55G G68C, the “polymerase ribozyme fitness (log ratio)” value was at most -4.2.
In the case of C5G C35U G59C C87U G100U C125G G133A U145C, the “polymerase ribozyme fitness (log ratio)” value is reported as at most -4.2.
In the case of C5G A52C G58A C93A C118U, the “polymerase ribozyme fitness (log ratio)” value is reported as -3.09.
For U4G C14G C76G, the “polymerase ribozyme fitness (log ratio)” value was at most -4.2.
In the case of C5G A41C U55A G58A A60G, the “polymerase ribozyme fitness (log ratio)” value is reported as -1.54.
In the case of U4C A52U U82G C96A, the “polymerase ribozyme fitness (log ratio)” value is reported as -3.56.
In the case of C5G G141C, the “polymerase ribozyme fitness (log ratio)” value is reported as -0.606.
For C5A C18U G86U, the “polymerase ribozyme fitness (log ratio)” value was -1.4.
For U6A U44A C57G G70A G80A C85U G126U C131G, the “polymerase ribozyme fitness (log ratio)” value was at most -4.2.
With C5G C54A G65C A66G C85U the “polymerase ribozyme fitness (log ratio)” value was at most -4.2.
For C5U A142U, the “polymerase ribozyme fitness (log ratio)” value was -0.885.
In the case of C5U C10G C35U C75G U102G A107U C118A, the “polymerase ribozyme fitness (log ratio)” value is reported as at most -4.2.
With C5A U9C C85A the “polymerase ribozyme fitness (log ratio)” value was -2.68.
For U4G U7C A16G C96G, the “polymerase ribozyme fitness (log ratio)” value was -2.73.
For C5U U33A C38U C57G C93U A98U, the “polymerase ribozyme fitness (log ratio)” value was at most -4.2.
For C5G A20G C75U C87U A119G A142G, the “polymerase ribozyme fitness (log ratio)” value was -3.16.
With U4C A49U G94A A106G C123U the “polymerase ribozyme fitness (log ratio)” value was -1.94.
In the case of C5G U53A U56A G68C G94A C118U U148A A150C, the “polymerase ribozyme fitness (log ratio)” value is reported as at most -4.2.
In the case of C5G C10A G11A A30U A49C C93U G136A, the “polymerase ribozyme fitness (log ratio)” value is reported as at most -4.2.
With C5G A16U C43G C93G A106U A107U the “polymerase ribozyme fitness (log ratio)” value was at most -4.2.
For U4C C96A, the “polymerase ribozyme fitness (log ratio)” value was -0.253.
For C5A A26G C36A C96A, the “polymerase ribozyme fitness (log ratio)” value was at most -4.2.
In the case of U6A A28C U44A U45A A49U C85G U144A, the “polymerase ribozyme fitness (log ratio)” value is reported as at most -4.2.
With U6A A47C G59U G81A C95G G141C the “polymerase ribozyme fitness (log ratio)” value was at most -4.2.
For U6A C51A G58C C63G C93G U104G U145A U148C, the “polymerase ribozyme fitness (log ratio)” value was at most -4.2.
With C5G U55A G70C C85A C96U U151G the “polymerase ribozyme fitness (log ratio)” value was at most -4.2.
In the case of U4C C87G A107G, the “polymerase ribozyme fitness (log ratio)” value is reported as at most -4.2.
In the case of C5G C32G C72U A73G A91G A119U G141A, the “polymerase ribozyme fitness (log ratio)” value is reported as at most -4.2.
In the case of U6C A66C C72A U77C U82A U111C G126A, the “polymerase ribozyme fitness (log ratio)” value is reported as at most -4.2.
For U4A A121G A137C C149U, the “polymerase ribozyme fitness (log ratio)” value was -4.16.
With U6A U13A U61A C76A A91G the “polymerase ribozyme fitness (log ratio)” value was at most -4.2.
